Laboratory results reported in the nanobody polyreactivity screen of Harvey et al. (2022).

assay: yeast display, Sf9 membrane polyspecificity reagent, FACS + sequencing; frameworks hold sequencing errors
In short: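 Nanobodies came from a synthetic yeast display library in Saccharomyces cerevisiae BJ5465, induced with galactose for 36–48 hours and stained for 1 hour at 4 °C with 10% biotinylated, detergent-solubilized Sf9 membrane reagent. Cells were enriched on streptavidin microbeads and then FACS-sorted, with low and high (top ~1%) gates set on anti-HA fluorescence for expression and streptavidin fluorescence for reagent binding. Each polyreactivity label reflects the gate a clone came from. Genes were amplified by colony PCR, sequenced by MiSeq 2 × 250 and filtered by CDR length.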

| Sequence | polyreactivity (PSR sort gate) |
| --- | --- |
| QVQLVESGGGLVKAGGSLRLSCAASGSTFDWYAMGWYRQAPGKERELVAAITWRGDSTNYADSVKGRFTISRDNAKNTVYLQMNSLKPEDTAVYYCATGKTYRDDYWGQGTQVTVSS | high polyreactivity |
| QVQLVESGGGLVQAGGSLRLSCAASGNTIFAYVMGWYRQAAGKEREFVAAISRRDGRTYYADSVKGRFTISRDNAKNTVYLQMNSLKPEDTAVYYCNAQRHFWHLYAPSSFDYWGQGTQVTVSS | low polyreactivity |
| HVQLVESGGGLVQAGGSLPLSCAASGRTFDHYAMGWYRQAPGKEREFVAAITSGGSTYYADSVKGRFRISRDNAKNTVYLQMNSLKPVDTAVYYCNNDSSFWGYYIAQVNERDYWGQGTQVTVSS | low polyreactivity |
| QVHLVVSGGGLVQAGGSLRLMCAASGSTFKYYVMGWYRQAPGKERELVAAISGSGGSKYYADSVKGRFTISRDNAKNTVYLQMNSLIPEDTAVYYCAAGRLRGPGYYFTFDYWGQGTQVTVSS | high polyreactivity |
| QVQLVESGGGLVQAGGSLRLSCAASGSIFRSYAMGWYRQAPGKERELVASITWRGGRTYYADSVKGRFTISRDNAKNTVYLQMNSLKPEDSAVYYCNVDVPGVRFEYWGQGTQVTVSS | low polyreactivity |
| QVQLQECGGGLVQAGGSLRLSCAASGNIFDADIMGWYSQAPGKERELVDSVTDGGSTNYADSVKGRFTISRDNAKNTVYLQMNSLKPEHTAVYYCAAIVYPDILTYFDYDYDYFYWGQGTQVTVGS | low polyreactivity |
| QVQLVESGGGLVQAGGSLRLSCAASGFIFSLYAMGWYRQAPGKERELVAVITWSDGRTYYADSVKGRFTISRDNAKNTVYLQMNSLKQEDTAVYYCAAADWITEYDYWGQGTQVTVSS | low polyreactivity |
| QVQLVESGGGVVQAGGSLRLSCAASGSTLARYAMGWYRQSPGKERELVAAISSDGRTYYADSVKGRFTISRDNAKNTVYLQMNSLKPEDTAVYYCSAVGKPGVYQEGDYWGQGTQVTVSS | high polyreactivity |
| QVQLVESGGGLVQAGGSLRLSCAASGSTFLYYAMGWYRQAPGKERELVAVISWSCVSTYYADSVKGRFTISRDNAKYTVYLQMNSLKPEDTAVSYCAADWDWRFHRMNYWGQGTQVTVSS | low polyreactivity |
| QVQLVESGGGLVQAGGSLRLSCAASGRIFGLNTMGWYRQAPGKERELVAAITSSAGSTYYADSVKGRFTISRDNAKNTVYLQMNSLKPEDTAVYYCAARVSYLGSFTSQRYYYWGQGTQVTVSS | high polyreactivity |
| QVQLVESGGGLVQAGGSLRLSCAASGSIFPFYAMGWYRHAPGKERELVASISSGGSTNYADSVKGRFTISRDNAKNTVYLQMNSLKPEDTAVYYCNAVVPYRWDTWFQVVYPESYDYWGQGTQVTVSS | low polyreactivity |
| QVQLVESGGGLVQAGGSLRLSCAASGSTFDTNAMGWYRQAPGKERELVAAISASGGSTYYADSVKGRFTISRDNAKNTVYLQMNSLKPEDTAVYDCAAKTRGQQRKFDYWGQGSQVTVSS | high polyreactivity |
| QVQLVESGGGLVQAGGSLRLSCAASGRTFIANAMGWYRQAPGKERELVAVITLNGGSTYYADSVKGRFTISRDNAKNTVYLQMNSLKPEDTAVYYCAAGRYYKLRATHGYWGQGTQVTVSS | low polyreactivity |
| QVQLQERAAWCRRAGSLLLSCAASGNISDYYFMGWYRQAPAKERELVAAIAPGSNTYYADSVQGRFTISRDNAKKTVYLQMNSLKPEDTAVCFCAANSTQYTWFDDWGQGTQVPVSS | low polyreactivity |
| QVQLVESGGGLVQAGGSLRLSCAASGRIFSAYAMGWYRQAPGKEREFVAAITQSGGSTYYADSVKGRFTISRDNAKNTVYVQMNSLKPEDTAVYYCAAGDAYYTEALPFGEYDYWGQGTQVTVSS | low polyreactivity |
| QVQLVESGGGLVQAGGSLRLSCAASGNIFQAYAMGWSRQAPGKERELVATIRTYADYVKGRFTISRDNAKNTVYLQMNSLKPEDTAVYYCAAQNAMYYDSYSGYDSWGQGTQVTVSS | low polyreactivity |
| QVQLVESGGGLVQAGGSLRLSCAASGFTFRSNVMGWYRQATGKERELVAAISWSGGSTYYADSVKGRFTISRDNAKNNVYLQMNSLKPEDTAVYYCATVQVVGPWSYRKLDYWGQGTQVTVSS | high polyreactivity |
| QLQQHESGGGLVQAGDSPRLSCAESDNIFPDSVMCWYLQAPGKERELVATIGFGATTNYADSVKGRFTISRDNAKNTVYLQMNCLKPEDTAVYYSAADPLNYEYFCYWGQGTQVTVSS | low polyreactivity |
| QVQLVESGGGLVQAGGSLRLSCAASGRIFRKYVMGWYRQAPGKERELVASITTSGDSTYYADSVKGRFTISRDNAKNTVYLQMNSLKPEDTAVYYCAARSYRGRRYDYWGQGTQVTVSS | high polyreactivity |
| QVQLVESGGGLVQAGGSLRLSCAASGSTFRWYAMGWYRQAPGKERELVAAISGSGGSTYYADSVKGRFTISRDNAKKTVYLQMNSLKPEDTAVYYCNKRYFTYLGEHTVGYWGQGTQVTVSS | high polyreactivity |
| QVQLVESGGGLVHAGGSLRLSCAASGSTFDVYVMGWYRQAPGKEREMVAAISSGDDTNYADSVKGRFTISRDNAKNTVYLQMNSLKPEDTEVYYCNADYFDYSRPRYDYWGQGTQVTVSS | low polyreactivity |
| QVQLVESGGGLVQAGGSLRLSCAASGSTFVNNAMGWYRQAPGKERELGASITVGGSTYYADSVKGRFTISRDNAKNTVYLQMNSLKPEDTAVYYCAAADYRFWSRYDYWGQGTQVTVSS | low polyreactivity |

| Sequence | polyreactivity (PSR sort gate) |
| --- | --- |
| QVQLVESGGGLFQAGGSLRLSCAASGFIFQYYDMGWYRQAPGKERELVAAINYSGGNTYYADSVKGRFTISRDNAKNTVYLQLNILKPEDSEVFYCAAAPSVSCTRLYEYWGQGTQVTVSS | high polyreactivity |
| QVHLVESGGGLVQAGGSLRLSCAASGSINYYAMGWYRQAPGKERELVAAITGSGGSTYYADSVKGRFTISRDNAKNTVYLQMNSLKPEDTAVYYCAARYGYIYGPYYYWGQGTQVTVSS | high polyreactivity |
| QVPLVESGGGLVQAGGSLRLSCAASGRTFRPYALGWYRQAPGKERELVATISGGGSTYYADSVKGRFTISRDNAKNSLYLQLNSLKPEETAFYYCAKVLTYGGVSYISRMDYWGQATQVTVSS | low polyreactivity |
| QVQLEESGGGLVQAGGSLRLSCAASGRIFGRNARGWYRQAPVKERELVAAISWRGGNTYYADSVKGRFTISRDNAKNTVYLQMKSLKAEDTAFYYCNTVQSRNEMGYWGQGTQVTVSS | high polyreactivity |
| QVQLVESGGGLVQAGGSLRLSCAASGRIFDTNVMGWYRQAPGKERELVAALSYSGGSTYYADSVKGRFTISRDNAKNTVYLQMNSLKPEDTAVYYCAAQYWQGDYDYRGQGTQVTVSS | high polyreactivity |
| QVQLVESGGGLVQAGGRLRLSCAASGSISVTKAMGWYRQAPGTERELVAAISGSGGSTYADSVKGRFTISRDNAKNTVYLQMNSLKPVDTAVYYCDRDRYYTREWYWYRHDHWGQGTQVTVSS | low polyreactivity |
| QVQLVESGGGLVQAGGTLRLTCAASGFTLTRNAMGWYRQAPGKERELVAAISRSGGSTYYADSVKGRFTISRDNAKNTVYLQMNSLKPEDTAVYYCAADDKYFYPGNGYWGLGTQVTVSS | high polyreactivity |
| QVQLVESGGGLVQAGGSLRLSCAASGRTFYHNAMGWYRQAPGKERELVATINSGGSTYADSVKGRFTISRDNAKNTVYLQMISLKPEDTAVYYCASTFWSRSRFYYRYDYWGQGTQVTVSS | high polyreactivity |
| QVQLVESGGGLVQAGGSLRLSCAASGIIFRTYAMGCYRQAPGKERELVAAITGSGGITYYADSVKGRFTISRDNAKNTVYLQMNSLKPEDTAVYYCAARGTRDGVQRYGYWGQGTQVTVSS | high polyreactivity |
| QVQLVESAGRLVQEGGSLRLRSAASGSIFKYNTMGWYRQAAGKERELVAGISYGGRTYYADSVKGRFTISRDNAKNTVYLHMNSLKPEYTAVYYCAARWSYFKTTHRNNYWGQGTQVTVSS | high polyreactivity |
| QVQLVESGGGLVQAGGSLRLSCAASGLTFARNAMGWYRQAPGKERELVAAISSGGSTYYADSVKGRFTISRDNAKNPVYLQMNSLKPEDTAVYYCAARPIPRYYGKFWRVDYWGQGTQVTVSS | high polyreactivity |
| QVQLVESGGGLVQAGGSLRLSCAASGITLYYYAMGWYRQAPGKERELVAAISTSGGTTYYADSVKGRFTISRDNAKYTVYLQMNSLKPEDTAVYYCAARRRAFGSTYNYWGQGTQVTVSS | high polyreactivity |
| QVQLVESGGGLVQAGGSLRLSCTASGITSGSYAMGWYRQAPGKERELVAAISNSGSTYYADSVKGRFTISRDNAKNSVYLQMNSLKPEDTAVYYCNADDWWGGYDYWGQGTQVTVSS | low polyreactivity |
| QVQLVESGGGLDQAGGSLRLSCAASGSIFGSYTLGGYRQAPGKERELVAVINWSGDRTYYADSVKGRFTISRDNAKNTVYLQMNSLKPEDTAVYYCAARERAAYSRIRYNYWGQGTQVTVSS | high polyreactivity |
| QVQLVESGGGLVQGGGSLRLSCAASGSNLQINAMGWYRQAPGKERELVAANDWGGGDTYYADSVKGRFTISRDNAKNTVYVQMISLKPEDTAVYYCAAEGVTWYLWDFYDIYGYWGQGTQVNVSS | high polyreactivity |
| QLQLVETGGGLVQAGGSLRLSCASSGRTFTAYAMVWYREAAGKESELVAAITLSGGRTYYADSVKGRFTISRDNAKNTVYLQMNSLKPEDTAVYYCATDYYWGQGTQVTVSS | high polyreactivity |
| QVQLVESGGGLVQAGGSLRLSCAASGITFIQYAMGWYRQAPGKERELVAAISSGGRTYYADSVKGRFTISRDNAKNTVYLQMNSLKPEDTAVYYCARDIQHYGGDSWGQGTQVTVSS | low polyreactivity |
| QVQLVESGGGLVQAGGSLRLSCAASGSIFTIYAMGWYRQAPGKERELVATITGGGGSTYYADSVKGRFTISRDNAKNTVYLQMNSLKPEDTAVYDCAADSPGWTYTSRSYDYWGQGTQVTVSS | low polyreactivity |
| QVQLVESGGGLVQAGGSLRLSCAASGSTFYPYAMGWYRQAPGKERELVAAISSGGSTSYADSVKGRFTISRDNAKNTFYLQMNSLKPEDTAVYYCNASSPGAVPVYDYDYWGQGTQVTVSS | low polyreactivity |
| QVQLVESGGGLVQAGGSLRLTCAASGSTFWSNSMGWYRQAPGKERELVAAISSRGGSTYYADSVKGRFTISRDNAMNTVYLQMNSLKPEDTAVYYCAARSKRLAHDYWGQGTQVTVSS | high polyreactivity |
| QVQLVESGGGLVQAGGSLRLSCAASGSTIDYYAMGLYRQAPGKERELVAGISASGGSTYYADSEKGRFTISRDNAKNTVYLQMNSLKPEDTAVYYCASYYKPPGYDYWGQGTQVTVSS | low polyreactivity |
